Columns and labels:
[1] = target: clone nr 1.8 (SEQ ID NO: 4), monoclonal phage; experiment: phage ELISA, dilution series 1/10 to 1/1000
[2] = target: clone nr 1.9 (SEQ ID NO: 5), monoclonal phage; experiment: phage ELISA, dilution series 1/10 to 1/1000
[3] = target: clone nr 4.10 (SEQ ID NO: 6), monoclonal phage; experiment: phage ELISA, dilution series 1/10 to 1/1000
[4] = target: clone nr 1.2 (SEQ ID NO: 2), monoclonal phage; experiment: cross reactivity phage ELISA on coated toxin
[5] = target: clone nr 1.4 (SEQ ID NO: 3), monoclonal phage; experiment: cross reactivity phage ELISA on coated toxin
[6] = target: clone nr 1.1 (SEQ ID NO: 1), monoclonal phage; experiment: monoclonal phage ELISA on coated myotoxin II
TAMRA-labeled JB006 = experiment: fluorescence polarization with TAMRA-labeled JB006
[7] = target: clone nr 1.1 (SEQ ID NO: 1), monoclonal phage; experiment: cross reactivity phage ELISA on coated toxin
[8] = target: clone nr 1.8 (SEQ ID NO: 4), monoclonal phage; experiment: cross reactivity phage ELISA on coated toxin
[9] = target: clone nr 1.9 (SEQ ID NO: 5), monoclonal phage; experiment: cross reactivity phage ELISA on coated toxin
[10] = target: clone nr 4.10 (SEQ ID NO: 6), monoclonal phage; experiment: cross reactivity phage ELISA on coated toxin

Measured: binding result

B1: Myotoxin II from venom of Bothrops asper (other)
chain: SLFELGKMILQETGKNPAKSYGAYGCNCGVLGRGKPKDATDRCCYVHKCCYKKLTGCNPKKDRYSYSWKDKTIVCGENNSCLKELCECDKAVAICLRENLNTYNKKYRYYLKPLCKKADAC
binds: [1] | [2] | [3] | [4] | [5] | [6] | TAMRA-labeled JB006

B2: α-cobra toxin (a-cbtx) from Naja kaouthia (other)
chain: IRCFITPDITSKDCPNGHVCYTKTWCDAFCSIRGKRVDLGCAATCPTVKTGVDIQCCSTDNCNPFPTRKRP
binds: [7] | [4] | [5] | [8] | [9] | [10]

Source: patent publication US20210070804A1 (published 2021)
